Experimental data published in US20260055369A1 (H LEE MOFFITT CANCER CENTER AND RESEARCH INSTITUTE, published 2026).

Tests used:
[1] = biological target: Notch1 on U2OS hNotch1-Gal4 luciferase reporter cells (human, UniProt P46531 19-2555); experiment: cell-based or functional assay
[2] = biological target: T1, hNotch2 (EGF6-13, residues 221-530), biotinylated (human, UniProt Q04721 221-530, Biotinylated in vitro by BirA at the C-terminal BAP-tag (tag not in the letters).); experiment: SPR, KD of Delta^MAX against KD of WT DLL4
T1 construct: Immobilised on a streptavidin chip for SPR
T1 sequence: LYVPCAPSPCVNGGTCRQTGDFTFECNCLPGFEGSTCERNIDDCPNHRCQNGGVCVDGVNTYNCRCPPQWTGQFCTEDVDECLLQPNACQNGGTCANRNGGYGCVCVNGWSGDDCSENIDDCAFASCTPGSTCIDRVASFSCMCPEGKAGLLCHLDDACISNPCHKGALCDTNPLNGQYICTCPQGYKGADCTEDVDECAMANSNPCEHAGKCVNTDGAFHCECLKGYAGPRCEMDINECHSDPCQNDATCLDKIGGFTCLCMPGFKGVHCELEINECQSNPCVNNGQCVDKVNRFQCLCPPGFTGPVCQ
Description: (§1) Surface plasmon resonance (SPR) was used to determine the binding affinity between Delta^MAX and the ligand-binding regions of Notch1-4. As a basis for comparison, a WT DLL4 construct, a DLL4.v2 construct, and a “DLL4.v1” construct containing the five E12 mutations (G28S, F107L, N118I, H194Y, and L206P) were also generated (FIG. 2A, 10). […] The rapid dissociation of WT DLL4 precluded kinetic fitting of the binding data.
(§2) Equilibrium dissociation constants were determined by surface plasmon resonance using a Biacore T200 instrument (GE Healthcare). Approximately 100 resonance units (RU) of biotinylated Notch extracellular fragments (Notch1 (EGF6-13), Notch2 (EGF6-13), Notch3 (EGF5-12), Notch4 (7-12), and mouse Notch1 (EGF6-13)) were immobilized on individual flow cells at 5 μl/min using a streptavidin-coated sensor chip (Series S Sensor chip SA, GE Healthcare). Three-fold serial dilutions of recombinant DLL4 proteins (N-EGF5) starting at 50 μM (WT DLL4), 18 μM (DLL4.v2), and 6 μM (DLL4.v1 and Delta^MAX) were flowed over the chip at 25° C. in SPR buffer (20 mM HEPES pH 7.4, 150 mM NaCl, 1 mM calcium chloride, 0.1% BSA supplemented with 0.005% surfactant P20). Association (“on-rate”) and dissociation (“off-rate”) phases were performed at 10 μl/min for 120 seconds and 300 seconds, respectively. […] Data collection rate was performed at 10 Hz, and curves were reference-subtracted from a flow cell containing 100 RU of a negative control non-related protein (biotinylated mouse RNF43 PA domain).

[3] = biological target: T2, hNotch3 (EGF5-12, residues 197-505), biotinylated (human, UniProt Q9UM47 197-505, Biotinylated in vitro by BirA at the C-terminal BAP-tag (tag not in the letters).); experiment: SPR, KD of Delta^MAX against KD of WT DLL4
T2 construct: Immobilised on a streptavidin chip for SPR
T2 sequence: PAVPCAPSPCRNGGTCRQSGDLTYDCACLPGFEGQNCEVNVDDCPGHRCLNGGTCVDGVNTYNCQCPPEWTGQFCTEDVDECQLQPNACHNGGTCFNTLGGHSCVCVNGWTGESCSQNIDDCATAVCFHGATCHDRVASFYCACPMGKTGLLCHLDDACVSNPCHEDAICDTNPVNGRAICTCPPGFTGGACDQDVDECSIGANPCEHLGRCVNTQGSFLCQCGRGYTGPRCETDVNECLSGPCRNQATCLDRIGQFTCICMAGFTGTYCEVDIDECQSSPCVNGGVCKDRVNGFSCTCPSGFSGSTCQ
Description: as §1, §2

[4] = biological target: T3, hNotch4 (EGF7-12, residues 276-511), biotinylated (human, UniProt Q99466 276-511, Biotinylated in vitro by BirA at the C-terminal BAP-tag (tag not in the letters).); experiment: SPR, KD of Delta^MAX against KD of WT DLL4
T3 construct: Immobilised on a streptavidin chip for SPR; also called Notch4 (7-12)
T3 sequence: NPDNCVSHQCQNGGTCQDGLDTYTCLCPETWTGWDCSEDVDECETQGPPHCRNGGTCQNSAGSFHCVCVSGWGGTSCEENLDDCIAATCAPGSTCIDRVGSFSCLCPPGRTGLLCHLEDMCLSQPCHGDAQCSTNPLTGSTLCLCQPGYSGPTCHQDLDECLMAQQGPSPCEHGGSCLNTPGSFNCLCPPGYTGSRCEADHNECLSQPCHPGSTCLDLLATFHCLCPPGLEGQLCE
Description: as §1, §2

[5] = biological target: T4, mouse Notch1 (EGF6-13, residues 221-526), biotinylated (mouse, UniProt Q01705 221-526, Biotinylated in vitro by BirA at the C-terminal BAP-tag (tag not in the letters).); experiment: SPR steady-state binding isotherm, biotinylated mNotch1 (EGF6-13) on a streptavidin chip, DLL4 variant as analyte, response normalized to the maximum (100%)
T4 construct: Immobilised on a streptavidin chip for SPR; also called mNotch1 EGF6-13; mNotch1 (6-13)
T4 sequence: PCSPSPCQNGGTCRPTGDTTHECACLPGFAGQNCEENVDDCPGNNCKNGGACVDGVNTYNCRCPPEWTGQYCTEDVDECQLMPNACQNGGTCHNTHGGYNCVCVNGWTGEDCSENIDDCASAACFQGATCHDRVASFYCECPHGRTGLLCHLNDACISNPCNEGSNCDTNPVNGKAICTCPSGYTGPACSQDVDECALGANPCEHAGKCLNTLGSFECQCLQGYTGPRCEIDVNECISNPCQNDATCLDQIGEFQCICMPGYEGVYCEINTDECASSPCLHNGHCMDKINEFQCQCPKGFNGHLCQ
Text: Extended Data FIG. 5. Quantitation of mNotch1 binding to DLL4 variants, ligand adsorption, and Notch surface expression. a, SPR binding isotherms were fitted to a 1:1 binding model to determine the binding affinity between mNotch1 (6-13) and each DLL4 variant. b, Determination of plate adsorption for WT DLL4 and Delta^MAX by ELISA. Data represent mean values±s.d. of three biological replicates. c, Binding assay of WT DLL4 and Delta^MAX tetramers to Notch1 overexpressing CHO-K1 N1-Gal4 cells was measured by flow cytometry. Data represent mean values±s.d. of three biological replicates. d, The level of Notch1 expression on the surface of cell lines used in this study was determined by flow cytometry. Data represent mean values±s.d. of three biological replicates. e, Percentage of CD8⁺ T cells expressing Notch1 (upper graph) and Notch2 (bottom graph) on cell surface determined by flow cytometry after stimulation with K32-WT DLL4, K32-Delta^MAX, or K32 for 96 hours. Data represent mean values±s.e.m. of three biological replicates. Delta^MAX statistics are referred to WT DLL4. *P<0.05, ****P<0.0001 (Two-way ANOVA).
Equilibrium dissociation constants were determined by surface plasmon resonance using a Biacore T200 instrument (GE Healthcare). […]

Sequence of Notch1 on U2OS hNotch1-Gal4 luciferase reporter cells (P46531 19-2555): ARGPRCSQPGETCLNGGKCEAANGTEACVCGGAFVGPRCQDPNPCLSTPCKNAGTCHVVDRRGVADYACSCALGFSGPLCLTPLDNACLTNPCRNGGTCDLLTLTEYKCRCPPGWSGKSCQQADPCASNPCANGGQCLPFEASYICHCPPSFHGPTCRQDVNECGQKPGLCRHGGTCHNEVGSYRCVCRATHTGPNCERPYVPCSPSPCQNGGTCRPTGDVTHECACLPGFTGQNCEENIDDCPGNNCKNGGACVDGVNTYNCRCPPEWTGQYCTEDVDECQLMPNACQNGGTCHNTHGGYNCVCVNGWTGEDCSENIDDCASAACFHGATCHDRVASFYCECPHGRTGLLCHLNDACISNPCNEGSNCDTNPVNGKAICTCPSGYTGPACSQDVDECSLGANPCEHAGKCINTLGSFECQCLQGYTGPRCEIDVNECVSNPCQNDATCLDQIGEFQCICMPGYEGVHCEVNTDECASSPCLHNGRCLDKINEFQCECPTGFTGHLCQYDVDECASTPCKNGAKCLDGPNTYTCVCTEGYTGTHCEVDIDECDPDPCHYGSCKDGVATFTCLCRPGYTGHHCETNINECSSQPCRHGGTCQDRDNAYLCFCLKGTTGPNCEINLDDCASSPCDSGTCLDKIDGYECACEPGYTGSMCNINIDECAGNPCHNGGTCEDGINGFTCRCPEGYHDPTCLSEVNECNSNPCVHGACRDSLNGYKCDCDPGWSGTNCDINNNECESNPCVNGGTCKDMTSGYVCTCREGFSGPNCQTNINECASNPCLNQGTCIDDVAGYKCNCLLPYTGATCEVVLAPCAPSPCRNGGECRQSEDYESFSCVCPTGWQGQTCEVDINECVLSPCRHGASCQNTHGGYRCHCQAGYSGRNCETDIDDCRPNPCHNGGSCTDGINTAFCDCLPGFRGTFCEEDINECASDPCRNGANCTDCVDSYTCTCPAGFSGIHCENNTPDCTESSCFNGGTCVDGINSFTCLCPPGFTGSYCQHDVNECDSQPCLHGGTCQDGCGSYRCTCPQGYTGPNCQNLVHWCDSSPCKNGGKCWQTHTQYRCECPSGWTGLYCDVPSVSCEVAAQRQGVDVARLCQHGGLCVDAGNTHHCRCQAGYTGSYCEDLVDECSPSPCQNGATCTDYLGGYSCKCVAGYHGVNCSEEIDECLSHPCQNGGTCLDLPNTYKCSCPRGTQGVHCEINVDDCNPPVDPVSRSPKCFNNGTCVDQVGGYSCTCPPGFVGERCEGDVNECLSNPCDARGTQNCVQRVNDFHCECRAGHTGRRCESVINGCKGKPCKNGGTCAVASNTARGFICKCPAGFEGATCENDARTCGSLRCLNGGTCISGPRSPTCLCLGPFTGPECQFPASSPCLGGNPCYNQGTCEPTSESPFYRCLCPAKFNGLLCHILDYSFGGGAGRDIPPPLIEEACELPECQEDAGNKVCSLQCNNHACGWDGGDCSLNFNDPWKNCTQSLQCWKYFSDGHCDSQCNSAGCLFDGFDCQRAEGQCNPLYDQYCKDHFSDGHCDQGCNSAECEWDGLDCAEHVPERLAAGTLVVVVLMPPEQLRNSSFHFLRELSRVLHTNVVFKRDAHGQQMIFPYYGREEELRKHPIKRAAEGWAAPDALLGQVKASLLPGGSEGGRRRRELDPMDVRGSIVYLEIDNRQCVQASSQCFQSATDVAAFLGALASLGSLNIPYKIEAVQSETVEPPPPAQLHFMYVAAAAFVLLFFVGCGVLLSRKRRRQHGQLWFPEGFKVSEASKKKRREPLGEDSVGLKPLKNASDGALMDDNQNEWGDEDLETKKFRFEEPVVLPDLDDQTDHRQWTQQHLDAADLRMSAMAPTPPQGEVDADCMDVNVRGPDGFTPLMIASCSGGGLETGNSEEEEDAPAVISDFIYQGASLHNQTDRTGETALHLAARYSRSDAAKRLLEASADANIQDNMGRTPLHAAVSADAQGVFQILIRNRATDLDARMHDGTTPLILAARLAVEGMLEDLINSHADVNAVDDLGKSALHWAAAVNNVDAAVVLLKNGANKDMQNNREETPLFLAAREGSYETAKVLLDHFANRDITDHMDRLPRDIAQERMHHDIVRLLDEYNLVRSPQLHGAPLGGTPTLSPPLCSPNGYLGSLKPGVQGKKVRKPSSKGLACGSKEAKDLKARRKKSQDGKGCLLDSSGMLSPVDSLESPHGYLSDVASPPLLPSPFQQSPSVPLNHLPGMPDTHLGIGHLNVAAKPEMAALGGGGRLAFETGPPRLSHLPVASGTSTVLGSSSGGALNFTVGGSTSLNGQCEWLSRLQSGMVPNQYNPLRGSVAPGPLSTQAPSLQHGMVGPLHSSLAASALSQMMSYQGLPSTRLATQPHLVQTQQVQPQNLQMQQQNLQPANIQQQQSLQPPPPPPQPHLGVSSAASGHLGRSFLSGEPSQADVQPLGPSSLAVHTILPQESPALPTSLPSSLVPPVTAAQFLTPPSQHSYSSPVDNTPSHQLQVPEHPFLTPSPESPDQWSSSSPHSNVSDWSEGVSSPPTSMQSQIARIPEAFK

B1: Delta^MAX (N-EGF5), non-biotinylated (ligand)
chain: SSVFQLQLQEFINERGVLASGRPCEPGCRTFFRVCLKHFQAVVSPGPCTFGTVSTPVLGTNSFAVRDDSSGGGRNPLQLPLNFTWPGTFSLIIEAWHAPGDDLRPEALPPDALISKFAIQGSLAVGQNWLLDEQTSTLTRLRYSYRVICSDNYYGDNCSRLCKKRNDYFGHYVCQPDGNPSCLPGWTGEYCQQPICLSGCHEQNGYCSKPAECLCRPGWQGRLCNECIPHPGCRHGTCSTPWQCLCDEGWGGLYCDQDLNYCTHHSPCKNGATCRNSGPRSYTCTCRPGYTGVDCELELSECDSNPCRNGGSCKDQEDGYHCLCPPGYYGLHCEHSTLSCADSPCFNGGSCRERNQGANYACECPPNFTGSNCEHHHHHHHH
notes: also called DLL4^MAX; soluble Delta^MAX
[1]
  increase in Notch1 activation relative to control, non-specific adsorption: 23 fold
[2]
  fold enhancement of affinity compared to WT DLL4: 670 fold
[3]
  fold enhancement of affinity compared to WT DLL4: 591 fold
[4]
  fold enhancement of affinity compared to WT DLL4: 532 fold
[5]
  EC50 (read off the curve): ~20 nM
